Key:
[1] = biological target: T1, human IL-1β (human, UniProt P01584 117-269); assay: SPR, Biacore T200; binder captured by anti-human Fc, cytokine injected; 1:1 Langmuir
T1 construct: Bought protein; also called hIL-1β
Description: (§1) In order to analyze binding capacity of PET101 to IL-1α and IL-1β more quantitatively, surface plasmon resonance analysis was performed by using Biacore T200 (GE healthcare). A Series S CM5 Sensor Chip (GE healthcare, BR100530) was used to measure the binding constant, and the anti-human Fc antibodies included in the Human Antibody Capture Kit (GE healthcare, BR100839) were immobilized to the sensor chip according to the manufacturer's manual by using an amine coupling kit (GE healthcare, BR100050). Flow cell 1 of the CM5 sensor, to which anti-human Fc antibodies were immobilized, was used as a blank space, and in Flow cells 2, 3, and 4, 100 nM of PET101 (18 μg/ml), 100 nM of rilonacept (25 μg/ml), and 100 nM of canakinumab (15 μg/ml) were respectively loaded for 1 minute at a flow rate of 10 μl/min. After preparation of all the flow cells, 0.25 nM, 0.5 nM, 1 nM, 2 nM, 4 nM, and 8 nM of human IL-1α (R&D systems, 200-LA), human IL-1β (R&D systems, 201-LB), and mouse IL-1α (R&D systems, 400-ML), mouse IL-1β (R&D systems, 401-ML), and rhesus monkey (Rhesus macaque) IL-1β (R&D systems, 1318-RL) antigens were injected at a flow rate of 30 μl/min, to carry out a binding reaction for 4 minutes, subsequently, only 1×HBS-EP+ buffer (GE healthcare, BR100669) was injected at a flow rate of 30 μl/min to perform a dissociation reaction for 10 minutes. Affinity was calculated by performing normalization and subtraction in each acquired sensorgram comparing with the blank cell. The BIAevaluation software (GE healthcare) was used for affinity calculation, and the association rate constant and dissociation rate constant were calculated through the 1:1 Langmuir model analysis. An equilibrium dissociation constant (KD) is a value obtained by dividing the dissociation rate constant (Kd) by the association rate constant (Kₐ).

[2] = biological target: T2, rhesus monkey (Rhesus macaque) IL-1β (rhesus monkey (Rhesus macaque), UniProt P48090 117-269); assay: as above
T2 construct: Bought protein; also called Monkey IL-1β; monkey IL-1β
Description: as §1

[3] = biological target: T1, human IL-1β; assay: ELISA, human IL-1β coated at 30 ng/well, detection with anti-human IgG Fc-HRP, OD 450 nm
Description: An analysis of binding of three types of IL-1 specific Fc fusion proteins (rilonacept, IL1T, PET101) to human IL-1β was performed by using an ELISA method. For comparison of binding capacity, human IL-1β antibody canakinumab was used as a control. […] Next day, the plate was washed with Phosphate Buffered Saline with Tween-20 (PBST; TEKNOVA, P1192). All washing procedures in this analysis were performed by using an AquaMax 2000 plate washer (Molecular Devices, 0310-5363). IL1T, PET101, rilonacept, and canakinumab were diluted in PBST containing 1% (w/v) skim milk to an appropriate concentration and treated in each well, binding was induced at room temperature for 1 hour, and plate was washed 3 times. Thereafter, peroxidase-bound anti-human IgG Fc goat antibodies (Invitrogen 31413) were diluted (1:10,000) in PBST containing 1% (w/v) skim milk to induce binding, and washed 3 times with PBST, and then color reaction was induced by treating 3,3′,5,5′-tetramethylbenzidine (TMB) substrate solution (Thermo Fisher Scientific, 34028) in the dark at room temperature. Thereafter, the reaction was terminated by treatment with 1N of sulfuric acid (DUKSAN, 255), and absorbance was measured at 450 nm by using a SpctraMax i3 multimode plate reader (Molecular Devices, 10192-220).

B1: canakinumab (antibody)
chain 1: not shown
chain 2: EIVLTQSPDFQSVTPKEKVTITCRASQSIGSSLHWYQQKPDQSPKLLIKYASQSFSGVPSRFSGSGSGTDFTLTINSLEAEDAAAYYCHQSSSLPFTFGPGTKVDIKRTVAAPSVFIFPPSDEQLKSGTASVVCLLNNFYPREAKVQWKVDNALQSGNSQESVTEQDSKDSTYSLSSTLTLSKADYEKHKVYACEVTHQGLSSPVTKSFNRGEC
Kd [1]: 0.0684 nM | koff [1]: 5.21e-05 s⁻¹ | kon [1]: 762000 M⁻¹ s⁻¹ | Kd [2]: 2850 nM | koff [2]: 0.0181 s⁻¹ | kon [2]: 6350 M⁻¹ s⁻¹ | EC50 [3]: 0.0882 nM
